Source: patent US20230265151A1, “GIP/GLP1 CO-AGONIST COMPOUNDS” (priority 2020, published 2023)
*1 amine or outer side, *2 acyl side, *3 side chain or, on linkers, in order; H or OH if unused. Where no end group is shown, it is not given here. Side-chain parts run from the residue outwards. [ ]: non-standard residue; d: D form. The star is where a group is joined. αMePhe(2-F) = C[C@](N)(Cc1ccccc1F)C(=O)O; γGlu = O=C(O)[C@H](CCC(=O)[*:2])N[*:1]; αMeY = C[C@](N)(Cc1ccc(O)cc1)C(=O)O; 4Pal = N[C@@H](Cc1ccncc1)C(=O)O; αMeL = CC(C)C[C@](C)(N)C(=O)O; Lauroyl = CCCCCCCCCCCC(=O)*; Orn = NCCC[C@H](N)C(=O)O; AEEA = NCCOCCOCC(=O)O; Aib = CC(C)(N)C(=O)O

T1: human GIP receptor (human, UniProt P48546 22-466)
T1 construct: whole, on cells; also called hGIPR; human glucose-dependent insulinotropic polypeptide receptor
T1 sequence (looked up): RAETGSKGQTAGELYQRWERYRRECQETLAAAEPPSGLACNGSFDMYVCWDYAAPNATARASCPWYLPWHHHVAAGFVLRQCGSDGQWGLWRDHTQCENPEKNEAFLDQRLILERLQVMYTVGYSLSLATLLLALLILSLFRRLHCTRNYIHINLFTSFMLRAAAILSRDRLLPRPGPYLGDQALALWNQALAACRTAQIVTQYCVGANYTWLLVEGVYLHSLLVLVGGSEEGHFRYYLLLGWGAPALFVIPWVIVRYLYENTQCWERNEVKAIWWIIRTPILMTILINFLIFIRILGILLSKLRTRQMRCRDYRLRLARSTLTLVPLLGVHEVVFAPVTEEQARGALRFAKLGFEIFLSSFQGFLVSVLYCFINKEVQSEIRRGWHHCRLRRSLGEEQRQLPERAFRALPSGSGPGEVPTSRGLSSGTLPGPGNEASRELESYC


Columns and labels:
human glucagon receptor = target: T2, human glucagon receptor (human, UniProt P47871 26-477); experiment: SPA competition vs [125I]-Gcg, hGcgR membranes
T2 construct: whole, on cells; also called hGCGR; hGcgR
Protocol: The binding buffer contains 25 mM 4-(2-hydroxyethyl)-1-piperazineethanesulfonic acid (HEPES), pH 7.4, 2.5 mM CaCl₂, 1 mM MgCh, 0.1% (w/v) bacitracin (Research Products), 0.003% (w/v) Polyoxyethylenesorbitan monolaurate (TWEEN®-20), and Roche Complete™ Protease Inhibitors without EDTA. […] Plates are sealed and mixed on a plate shaker (setting 6) for 1 minute and read with a PerkinElmer Trilux MicroBeta® scintillation counter after 12 hours of incubation/settling time at room temperature.
Data are analyzed using four-parameter (curve maximum, curve minimum, IC₅₀, Hill slope) nonlinear regression routines (Genedata Screener, version 12.0.4, Genedata AG, Basal, Switzerland). […] Values for Kᵢ are reported as the geometric mean, with error expressed as the standard error of the mean (SEM) and n is equal to the number of independent replicates (determined in assays performed on different days).

human GLP-1 receptor = target: T3, human GLP-1 receptor (human, UniProt P43220 24-463); experiment: SPA competition vs [125I]-GLP-1, hGLP-1R membranes
T3 construct: whole, on cells; also called hGLP-1R; human glucagon-like peptide-1 receptor
Method in brief: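 Competition binding in 25 mM HEPES pH 7.4, 2.5 mM CaCl₂, 1 mM MgCl₂, 0.1% bacitracin, 0.003% TWEEN-20, EDTA-free protease inhibitors. IC₅₀ from four-parameter nonlinear fit; Kᵢ given as geometric mean ± SEM, n = independent replicates on different days.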

human GIP receptor = target: T1, human GIP receptor; experiment: SPA competition vs [125I]-GIP, hGIPR membranes

T2 sequence (P47871 26-477): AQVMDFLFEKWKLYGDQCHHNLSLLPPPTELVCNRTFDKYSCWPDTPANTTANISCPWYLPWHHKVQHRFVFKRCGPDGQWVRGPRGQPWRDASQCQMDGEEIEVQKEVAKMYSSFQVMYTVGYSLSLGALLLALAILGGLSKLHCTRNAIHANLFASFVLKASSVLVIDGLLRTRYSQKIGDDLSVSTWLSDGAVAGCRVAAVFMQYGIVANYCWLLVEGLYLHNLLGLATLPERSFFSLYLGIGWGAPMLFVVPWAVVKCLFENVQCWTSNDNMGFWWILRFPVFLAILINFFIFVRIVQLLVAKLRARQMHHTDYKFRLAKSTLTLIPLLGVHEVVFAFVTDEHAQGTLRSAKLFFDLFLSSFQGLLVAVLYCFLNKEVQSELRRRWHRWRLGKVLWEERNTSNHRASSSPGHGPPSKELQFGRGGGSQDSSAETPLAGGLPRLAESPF

Binder	Ki (human glucagon receptor)	Ki (human GLP-1 receptor)	Ki (human GIP receptor)
YXEGTXTSDXXIXLDXQAQXXFIKXLIKGGPSSGAPPPS (Aib2, αMeF(2F)6, 4Pal10, Aib11, αMeL13, Orn16, Aib20, Orn21, K24(Z1), αMeY25, K28(Z1), C-term NH2; Z1=AEEA2-(γ-Glu)-(11-(4-carboxyphenoxy)undecanoyl))	130000 pM	164 pM	50.7 pM
YXEGTXTSDXXIXLDXQAQXXFIKXLIKGGPSSGAPPPS (Aib2, αMeF(2F)6, 4Pal10, Aib11, αMeL13, Orn16, Aib20, Orn21, K24(Z1), αMeY25, K28(Z1), C-term NH2; Z1=AEEA-Ahx-(γ-Glu)-CO-(CH2)12-CO2 (so in the source))	243000 pM	201 pM	13.3 pM
YXEGTXTSDKXIXLDXKAQXXFIXXLIEGGPSSGAPPPS (Aib2, αMeF(2F)6, K10(Z1), Aib11, αMeL13, Orn16, K17(Z1), Aib20, Orn21, D-Glu24, αMeY25, C-term NH2; Z1=AEEA2-(γ-Glu)-CO-(CH2)10-CH3)	58400 pM	167 pM	21.4 pM
YXEGTXTSDXXIXLDXQAQXXFIKXLIKGGPSSGAPPPS (Aib2, αMeF(2F)6, 4Pal10, Aib11, αMeL13, Orn16, Aib20, Orn21, K24(Z1), αMeY25, K28(Z1), C-term NH2; Z1=PEG3-(γ-Glu)-CO-(CH2)12-CO2H)	170000 pM	266 pM	23.2 pM
YXEGTXTSDXXIXLDXQAQXXFIKXLIKGGPSSGAPPPS (Aib2, αMeF(2F)6, 4Pal10, Aib11, αMeL13, Orn16, Aib20, Orn21, K24(Z1), αMeY25, K28(Z1), C-term NH2; Z1=AEEA2-(γ-Glu)-(10-(4-carboxyphenoxy)decanoyl))	131000 pM	373 pM	31.2 pM
YXEGTXTSDXXIXLDXQAQXXFIKXLIKGGPSSGAPPPS (Aib2, αMeF(2F)6, 4Pal10, Aib11, αMeL13, Orn16, Aib20, Orn21, K24(Z1), αMeY25, K28(Z1), C-term NH2; Z1=AEEA-Ahx-(γ-Glu)-(10-(4-carboxyphenoxy)decanoyl))	71800 pM	123 pM	13 pM
YXEGTXTSDXXIXLDXQAQXXFIKXLIKGGPSSGAPPPS (Aib2, αMeF(2F)6, 4Pal10, Aib11, αMeL13, Orn16, Aib20, Orn21, K24(Z1), αMeY25, K28(Z1), C-term NH2; Z1=PEG4-(γ-Glu)-(10-(4-carboxyphenoxy)decanoyl))	101000 pM	140 pM	10 pM
YXEGTXTSDXXIXLDXQAQXXFIKXLIKGGPSSGAPPPS (Aib2, αMeF(2F)6, 4Pal10, Aib11, αMeL13, Orn16, Aib20, Orn21, K24(Z1), αMeY25, K28(Z1), C-term NH2; Z1=Ahx-AEEA-(γ-Glu)-(10-(4-carboxyphenoxy)decanoyl))	60100 pM	243 pM	14.3 pM
YXEGTXTSDXXIXLDXKAQXXFIXXLIKGGPSSGAPPPS (Aib2, αMeF(2F)6, 4Pal10, Aib11, αMeL13, Orn16, K17(Z1), Aib20, Orn21, D-Glu24, αMeY25, K28(Z1), C-term NH2; Z1=AEEA3-(γ-Glu)-CO-(CH2)10-CH3)	81200 pM	150 pM	9.65 pM
YXEGTXTSDXXIXLDXQAQXXFIKXLIKGGPSSGAPPPS (Aib2, αMeF(2F)6, 4Pal10, Aib11, αMeL13, Orn16, Aib20, Orn21, K24(Z1), αMeY25, K28(Z1), C-term NH2; Z1=Ahx-AEEA-(γ-Glu)-CO-(CH2)12-CO2 (so in the source))	258000 pM	234 pM	23.9 pM
YXEGTXTSDKXIXLDXKAQXXFIXXLIEGGPSSGAPPPS (Aib2, αMeF(2F)6, K10(Z1), Aib11, αMeL13, Orn16, K17(Z1), Aib20, Orn21, D-Glu24, αMeY25, C-term NH2; Z1=AEEA3-(γ-Glu)-CO-(CH2)10-CH3)	356000 pM	134 pM	13.4 pM
YXEGTXTSDXXIXLDXKAQXEFIXXLIKGGPSSGAPPPS (Aib2, αMeF(2F)6, 4Pal10, Aib11, αMeL13, Orn16, K17(Z1), Aib20, D-Glu24, αMeY25, K28(Z1), C-term NH2; Z1=AEEA3-(γ-Glu)-CO-(CH2)10-CH3)	85900 pM	275 pM	20.7 pM
YXEGTXTSDXXIXLDXKAQXXFIXXLIKGGPSSGAPPPS (Aib2, αMeF(2F)6, 4Pal10, Aib11, αMeL13, Orn16, K17(Z1), Aib20, Orn21, D-Glu24, αMeY25, K28(Z1), C-term NH2; Z1=AEEA2-(γ-Glu)-CO-(CH2)10-CH3)	33700 pM	194 pM	22.9 pM
YXEGTXTSDXXGXLDXQAQXXFIKXLIKGGPSSGAPPPS (Aib2, αMeF(2F)6, 4Pal10, Aib11, αMeL13, Orn16, Aib20, Orn21, K24(Z1), αMeY25, K28(Z1), C-term NH2; Z1=AEEA2-(γ-Glu)-CO-(CH2)12-CO2H, G at position 12)	592000 pM	386 pM	53.9 pM
Y[Aib]EGT[αMePhe(2-F)]TSDK([AEEA-AEEA-γGlu-Lauroyl])[Aib]I[αMeL]LD[Orn]K([AEEA-AEEA-γGlu-Lauroyl])AQ[Aib][4Pal]FI[dE][αMeY]LIEGGPSSGAPPPS-NH2	51800 pM	156 pM	15.2 pM
